Assay results as given in the supplement of paper PMC10567573.

B1: TBX5 (parent)
chain: FHEVGTEMIITKAGRRMFPSYKVK

Variants of: B1
Assay: protein stability index of a GFP-peptide fusion (GPS, HEK-293T) (PSI 1-6); higher = more stable
Settings: c terminus: a fixed tail appended
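Note: lentivirally expressed fusions sorted by FACS into six bins by GFP to DsRed ratio, PSI derived from sequencing read proportions per bin multiplied by bin number.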

Row | Variant | protein stability index
1 | FHEVGTEMIITKAGRRMFPSYKYK [V23Y] | 1.82
2 | FHEVGTEMIITKAGRRMFPSYKCK [V23C] | 1.84
3 | FHEVGTEMIITKAGRRMFPSYHVK [K22H] | 1.55
4 | FHEVGTEMIITKAGRRMFPSYTVK [K22T] | 1.51
5 | FHEVGTEMIITKAGRRMFPSYCVK [K22C] | 1.86
6 | FHEVGTEMIITKAGRRMFPSYVVK [K22V] | 1.43
7 | FHEVGTEMIITKAGRRMFPSYDVK [K22D] | 2.34
8 | FHEVGTEMIITKAGRRMFPSYNVK [K22N] | 2.03
9 | FHEVGTEMIITKAGRRMFPSYIVK [K22I] | 2.03
10 | FHEVGTEMIITKAGRRMFPSYGVK [K22G] | 2.28
11 | FHEVGTEMIITKAGRRMFPSYYVK [K22Y] | 2.89
12 | FHEVGTEMIITKAGRRMFPSYQVK [K22Q] | 1.79
13 | FHEVGTEMIITKAGRRMFPSYLVK [K22L] | 2.14
14 | FHEVGTEMIITKAGRRMFPSYAVK [K22A] | 1.97
15 | FHEVGTEMIITKAGRRMFPSYMVK [K22M] | 2.01
16 | FHEVGTEMIITKAGRRMFPSYWVK [K22W] | 1.98
17 | FHEVGTEMIITKAGRRMFPSYPVK [K22P] | 2.08
18 | FHEVGTEMIITKAGRRMFPSYFVK [K22F] | 1.65
19 | FHEVGTEMIITKAGRRMFPSYSVK [K22S] | 2.18
20 | FHEVGTEMIITKAGRRMFPSYEVK [K22E] | 1.9
21 | FHEVGTEMIITKAGRRMFPSYRVK [K22R] | 2.45
22 | FHEVGTEMIITKAGRRMFPSYKVL [K24L] | 1.99
23 | FHEVGTEMIITKAGRRMFPSYKVT [K24T] | 2.41
24 | FHEVGTEMIITKAGRRMFPSYKVY [K24Y] | 2.08

Row | Variant | protein stability index
25 | FHEVGTEMIITKAGRRMFPSYKVP [K24P] | 1.55
26 | FHEVGTEMIITKAGRRMFPSYKVS [K24S] | 1.15
27 | FHEVGTEMIITKAGRRMFPSYKVW [K24W] | 1.65
28 | FHEVGTEMIITKAGRRMFPSYKVQ [K24Q] | 1.33
29 | FHEVGTEMIITKAGRRMFPSYKVD [K24D] | 2.2
30 | FHEVGTEMIITKAGRRMFPSYKVA [K24A] | 1.99
31 | FHEVGTEMIITKAGRRMFPSYKVH [K24H] | 1.59
32 | FHEVGTEMIITKAGRRMFPSYKVI [K24I] | 1.54
33 | FHEVGTEMIITKAGRRMFPSYKVG [K24G] | 2.03
34 | FHEVGTEMIITKAGRRMFPSYKVE [K24E] | 1.89
35 | FHEVGTEMIITKAGRRMFPSYKVF [K24F] | 2.83
36 | FHEVGTEMIITKAGRRMFPSYKVR [K24R] | 1.51
37 | FHEVGTEMIITKAGRRMFPSYKVC [K24C] | 2.62
38 | FHEVGTEMIITKAGRRMFPSYKVN [K24N] | 1.08
39 | FHEVGTEMIITKAGRRMFPSYKVM [K24M] | 2.55
40 | FHEVGTEMIITKAGRRMFPSYKVV [K24V] | 1.65
41 | FHEVGTEMIITKAGRRMFQSYKVK [P19Q] | 1.98
42 | FHEVGTEMIITKAGRRMFRSYKVK [P19R] | 2.89
43 | FHEVGTEMIITKAGRRMFFSYKVK [P19F] | 1.79
44 | FHEVGTEMIITKAGRRMFWSYKVK [P19W] | 1.75
45 | FHEVGTEMIITKAGRRMFMSYKVK [P19M] | 1.4
46 | FHEVGTEMIITKAGRRMFISYKVK [P19I] | 2.23
47 | FHEVGTEMIITKAGRRMFNSYKVK [P19N] | 1.61
48 | FHEVGTEMIITKAGRRMFHSYKVK [P19H] | 1.09

Row | Variant | protein stability index
49 | FHEVGTEMIITKAGRRMFVSYKVK [P19V] | 1.77
50 | FHEVGTEMIITKAGRRMFDSYKVK [P19D] | 2.2
51 | FHEVGTEMIITKAGRRMFESYKVK [P19E] | 2.19
52 | FHEVGTEMIITKAGRRMFGSYKVK [P19G] | 2
53 | FHEVGTEMIITKAGRRMFSSYKVK [P19S] | 2.72
54 | FHEVGTEMIITKAGRRMFLSYKVK [P19L] | 1.74
55 | FHEVGTEMIITKAGRRMFTSYKVK [P19T] | 2.1
56 | FHEVGTEMIITKAGRRMFKSYKVK [P19K] | 3.38
57 | FHEVGTEMIITKAGRRMFYSYKVK [P19Y] | 3.12
58 | FHEVGTEMIITKAGRRMFPEYKVK [S20E] | 2.02
59 | FHEVGTEMIITKAGRRMFPRYKVK [S20R] | 2.61
60 | FHEVGTEMIITKAGRRMFPHYKVK [S20H] | 2.31
61 | FHEVGTEMIITKAGRRMFPQYKVK [S20Q] | 2.83
62 | FHEVGTEMIITKAGRRMFPPYKVK [S20P] | 2.42
63 | FHEVGTEMIITKAGRRMFPCYKVK [S20C] | 3.1
64 | FHEVGTEMIITKAGRRMFPMYKVK [S20M] | 2.67
65 | FHEVGTEMIITKAGRRMFPNYKVK [S20N] | 2.06
66 | FHEVGTEMIITKAGRRMFPGYKVK [S20G] | 1.93
67 | FHEVGTEMIITKAGRRMFPLYKVK [S20L] | 1.86
68 | FHEVGTEMIITKAGRRMFPKYKVK [S20K] | 2.18
69 | FHEVGTEMIITKAGRRMFPWYKVK [S20W] | 2.42
70 | FHEVGTEMIITKAGRRMFPVYKVK [S20V] | 1.97
71 | FHEVGTEMIITKAGRRMFPTYKVK [S20T] | 2.69
72 | FHEVGTEMIITKAGRRMFPIYKVK [S20I] | 2.54

Row | Variant | protein stability index
73 | FHEVGTEMIITKAGRRMFPDYKVK [S20D] | 2.18
74 | FHEVGTEMIITKAGRRMFPAYKVK [S20A] | 1.89
75 | FHEVGTEMIITKAGRRMFPYYKVK [S20Y] | 2.84
76 | FHEVGTEMIITKAGRRMFPSTKVK [Y21T] | 2.42
77 | FHEVGTEMIITKAGRRMFPSNKVK [Y21N] | 2.55
78 | FHEVGTEMIITKAGRRMFPSGKVK [Y21G] | 2.51
79 | FHEVGTEMIITKAGRRMFPSAKVK [Y21A] | 2.66
80 | FHEVGTEMIITKAGRRMFPSRKVK [Y21R] | 3.16
81 | FHEVGTEMIITKAGRRMFPSEKVK [Y21E] | 2.92
82 | FHEVGTEMIITKAGRRMFPSFKVK [Y21F] | 2.83
83 | FHEVGTEMIITKAGRRMFPSIKVK [Y21I] | 1.48
84 | FHEVGTEMIITKAGRRMFPSDKVK [Y21D] | 2.64
85 | FHEVGTEMIITKAGRRMFPSQKVK [Y21Q] | 2.7
86 | FHEVGTEMIITKAGRRMFPSWKVK [Y21W] | 1.87
87 | FHEVGTEMIITKAGRRMFPSVKVK [Y21V] | 1.86
88 | FHEVGTEMIITKAGRRMFPSMKVK [Y21M] | 1.95
89 | FHEVGTEMIITKAGRRMFPSHKVK [Y21H] | 3.03
90 | FHEVGTEMIITKAGRRMFPSPKVK [Y21P] | 2.13
91 | FHEVGTEMIITKAGRRMFPSSKVK [Y21S] | 2.61
92 | FHEVGTEMIITKAGRRMFPSKKVK [Y21K] | 2.21
93 | FHEVGTEMIITKAGRRMFPSCKVK [Y21C] | 2.21
94 | FHEVGTEMIITKAGRRMFPSLKVK [Y21L] | 2.15
